Measurements reported in article PMC4381951, “Musashi proteins are post-transcriptional regulators of the epithelial-luminal cell state”.

Assays:
Conditions in all cases: protein: recombinant; tags: SBP tag (N-terminal); GST removed by PreScission
MSI1 (Musashi1) [1] = molecular target: T1, MSI1 (Musashi1) (UniProt Q61474 1-362); experiment: EMSA; mean of 2 gel shifts; EMSA buffer not given; RBNS: 25 mM Tris pH 7.5, 150 mM KCl, 3 mM MgCl2, 0.01% Tween, 1 mg/ml BSA, 1 mM DTT, 30 ug/ml poly I/C, room temperature
MSI1 (Musashi1) [2] = molecular target: T1, MSI1 (Musashi1); experiment: EMSA; EMSA buffer not given; RBNS: 25 mM Tris pH 7.5, 150 mM KCl, 3 mM MgCl2, 0.01% Tween, 1 mg/ml BSA, 1 mM DTT, 30 ug/ml poly I/C, room temperature
MSI1 (Musashi1) [3] = molecular target: T1, MSI1 (Musashi1); experiment: EMSA; no binding detected, Kd cannot be estimated; EMSA buffer not given; RBNS: 25 mM Tris pH 7.5, 150 mM KCl, 3 mM MgCl2, 0.01% Tween, 1 mg/ml BSA, 1 mM DTT, 30 ug/ml poly I/C, room temperature

T1 sequence (Q61474 whole entry): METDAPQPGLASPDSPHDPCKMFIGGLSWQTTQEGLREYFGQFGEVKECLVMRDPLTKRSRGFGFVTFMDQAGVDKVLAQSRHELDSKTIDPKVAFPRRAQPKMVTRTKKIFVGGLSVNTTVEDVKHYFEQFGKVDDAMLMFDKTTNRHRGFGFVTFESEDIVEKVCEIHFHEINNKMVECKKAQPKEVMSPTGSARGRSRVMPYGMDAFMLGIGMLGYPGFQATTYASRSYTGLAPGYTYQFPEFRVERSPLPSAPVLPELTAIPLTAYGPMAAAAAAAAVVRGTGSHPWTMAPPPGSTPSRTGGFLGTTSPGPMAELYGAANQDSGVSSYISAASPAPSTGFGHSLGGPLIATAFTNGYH

Row | Binder | Kd (MSI1 (Musashi1) [1]) | also measured
1 | UGUCCAGUUAGAUCACUGUUUAGAU (ssRNA) [Jag1 3' UTR region 1] | 15 nM | –
2 | UCAAAGUAGAAUUUUUGUAUAGUUAUGUAAAUAAU (ssRNA) [Jag1 3' UTR region 2] | 9 nM | –
3 | UCAAAGUCCAAUUUUUGUAUCCUUAUGUAAAUAAU (ssRNA) [Jag1 3' UTR region 2 mutant] | – | Kd (MSI1 (Musashi1) [2]): 649 nM
4 | UGUCCAGUUCCAUCACUGUUUCCAU (ssRNA) [Jag1 3' UTR region 1 mutant] | – | binding result (MSI1 (Musashi1) [3]): no binding
